Test results reported in PMC8115288 (2021).

Columns and labels:
[1] = molecular target: T1, GST-CTD (C-terminal domain of HIV-1 integrase, aa 201-288) (HIV-1 (Hx3B), UniProt P04585 1348-1435); experiment: GST-CTD 0.027 uM
T1 chain: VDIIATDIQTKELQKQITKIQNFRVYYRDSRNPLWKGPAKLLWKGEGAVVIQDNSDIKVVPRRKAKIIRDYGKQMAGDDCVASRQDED

[2] = molecular target: T1, GST-CTD (C-terminal domain of HIV-1 …); experiment: GST-CTD 0.083 uM

B1: His6-SUMO-INI1_(183-304) (domain or fragment)
chain: PEVLVPIRLDMEIDGQKLRDAFTWNMNEKLMTPEMFSEILCDDLDLNPLTFVPAIASAIRQQIESYPTDSILEDQSDQRVIIKLNIHVGNISLVDQFEWDMSEKENSPEKFALKLCSELGLG
Binder B1 has a Kd [1] of 3.5 nM and a Kd [2] of 3 nM.
